Literature values in patent US7754242B2, “Inhalable sustained therapeutic formulations” (Alkermes, Inc., priority 2002, dated 2010).
Where two headings read alike, the source gives them in different places.

Legend:
[1] = healthy volunteers; inhaled
[2] = primates; dry powder formulation via pulmonary delivery
[3] = human subjects; dry powder formulation via pulmonary delivery

## insulin: Insulin given by pulmonary delivery (dry powder formulation, inhaled), literature reports
[1]
  Time to half-maximal action (glucose infusion rate): about 30 minutes
[2]
  Time to peak insulin level: about 30 minutes
[3]
  Time to peak insulin level: about 20 minutes
